Tested on: peptide library, one residue held at a place counted from the Y acceptor
Experiment: relative phosphorylation of the sub-library (ratio to the mean residue at this position); higher = residue favoured
How it was run: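 Every value reflects phosphorylation relative to the mean randomized residue. The sum of the 18 randomized residues, or 16 in the Ser/Thr-free library, served to normalize intensities at each position, which were then multiplied by that number. Intensities came from phosphorimaging with ImageQuant of biotinylated Tyr-centred peptides captured on streptavidin membranes after 90 min with purified recombinant kinases and 50 μM ATP plus γ-32P-ATP.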

Chain of PDGFRB, construct: aa557-end, human (P09619 557-1106, looked up): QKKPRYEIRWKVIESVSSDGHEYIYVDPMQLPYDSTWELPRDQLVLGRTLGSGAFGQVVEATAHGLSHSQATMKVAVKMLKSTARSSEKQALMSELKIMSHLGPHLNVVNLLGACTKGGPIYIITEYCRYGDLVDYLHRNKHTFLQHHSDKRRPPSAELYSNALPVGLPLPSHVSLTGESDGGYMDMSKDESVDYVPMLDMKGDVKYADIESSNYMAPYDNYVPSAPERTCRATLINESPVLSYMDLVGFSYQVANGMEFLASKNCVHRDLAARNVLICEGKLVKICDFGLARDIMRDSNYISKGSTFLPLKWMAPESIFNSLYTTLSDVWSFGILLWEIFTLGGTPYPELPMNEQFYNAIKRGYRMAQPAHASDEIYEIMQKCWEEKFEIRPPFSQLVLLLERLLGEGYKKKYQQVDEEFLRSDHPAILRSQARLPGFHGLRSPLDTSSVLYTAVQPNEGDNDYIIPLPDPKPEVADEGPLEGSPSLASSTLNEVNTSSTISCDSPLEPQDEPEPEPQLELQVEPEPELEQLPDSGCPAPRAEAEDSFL

PDGFRB, construct: aa557-end, human (from UniProt P09619)
relative phosphorylation
Conditions | at +1 | at +2 | at +3 | at +4 | at +5 | at -1 | at -2 | at -3 | at -4 | at -5
A fixed | 1.1 | 0.618 | 0.621 | 0.809 | 0.959 | 0.751 | 0.921 | 0.883 | 1.02 | 0.916
D fixed | 0.263 | 0.542 | 0.332 | 0.816 | 0.825 | 1.46 | 0.994 | 1.26 | 1.11 | 1.13
E fixed | 0.377 | 0.815 | 0.245 | 0.817 | 0.757 | 0.988 | 1.08 | 1.26 | 0.996 | 1.12
F fixed | 1.49 | 1.41 | 1.54 | 0.86 | 0.93 | 1.33 | 0.75 | 0.807 | 1.01 | 0.902
G fixed | 0.536 | 0.452 | 0.617 | 1.01 | 1.11 | 0.532 | 1.18 | 1.03 | 1.15 | 1.11
H fixed | 1.25 | 0.986 | 0.975 | 1.25 | 1.04 | 1.96 | 1.27 | 1.08 | 1.08 | 1.08
I fixed | 1.91 | 1.04 | 2.13 | 0.898 | 0.769 | 1.12 | 0.745 | 0.707 | 0.816 | 0.877
K fixed | 0.561 | 1.02 | 0.776 | 1.17 | 1.15 | 0.534 | 1.02 | 0.997 | 1.05 | 1.06
L fixed | 0.96 | 1.12 | 1.57 | 0.854 | 0.906 | 0.898 | 0.88 | 0.752 | 0.793 | 0.843
M fixed | 0.964 | 1.2 | 1.3 | 0.978 | 0.852 | 0.818 | 0.76 | 0.857 | 0.816 | 0.892
N fixed | 0.451 | 0.899 | 0.775 | 0.976 | 1.12 | 1.58 | 1.28 | 1.31 | 1.03 | 1.12
P fixed | 0.259 | 0.732 | 0.857 | 0.909 | 1.08 | 0.742 | 1.05 | 1.08 | 1.16 | 0.995
Q fixed | 1.05 | 0.969 | 0.715 | 1.14 | 1 | 1.11 | 1.23 | 1.12 | 1.14 | 1.21
R fixed | 0.668 | 1.67 | 1.09 | 1.5 | 1.41 | 0.56 | 1.2 | 1.19 | 1.14 | 1.37
S fixed | 0.828 | 0.663 | 0.733 | 0.958 | 1.2 | 0.696 | 1.16 | 1.08 | 0.87 | 0.916
T fixed | 1.27 | 0.75 | 0.711 | 0.965 | 0.96 | 0.872 | 0.958 | 0.923 | 0.759 | 0.76
V fixed | 2.65 | 0.96 | 1.58 | 0.881 | 0.768 | 1.05 | 0.752 | 0.744 | 0.776 | 0.721
W fixed | 1.41 | 2.14 | 1.42 | 1.2 | 1.15 | 0.997 | 0.787 | 0.924 | 1.28 | 0.986
pThr fixed | 0.867 | 0.439 | 0.272 | 0.505 | 0.575 | 0.682 | 0.836 | 0.865 | 0.87 | 0.845
pTyr fixed | 1.15 | 1.84 | 0.4 | 0.809 | 0.751 | 1.06 | 1.08 | 1.19 | 1.29 | 1.01

— the supplement of paper PMC11136658
